# Data taken from patent US9249224B2 (RINAT NEUROSCIENCE CORP., priority 2011, dated 2016).
# B1: SS1: humanized GHR antagonist antibody; VL SEQ ID NO: 7, VH SEQ ID NO: 8; hIgG2Δa heavy chain SEQ ID NO: 134, light chain SEQ ID NO: 135 (antibody)
# heavy: EVQLVESGGGLVKPGGSLRLSCAASGFTFSDAWMDWVRQAPGKGLEWVAEIRSKANYHATYYAESVKGRFTISRDDSKNTLYLQMNSLKTEDTAVYYCTLIRDYWGQGTLVTVSSASTKGPSVFPLAPCSRSTSESTAALGCLVKDYFPEPVTVSWNSGALTSGVHTFPAVLQSSGLYSLSSVVTVPSSNFGTQTYTCNVDHKPSNTKVDKTVERKCCVECPPCPAPPVAGPSVFLFPPKPKDTLMISRTPEVTCVVVDVSHEDPEVQFNWYVDGVEVHNAKTKPREEQFNSTFRVVSVLTVVHQDWLNGKEYKCKVSNKGLPSSIEKTISKTKGQPREPQVYTLPPSREEMTKNQVSLTCLVKGFYPSDIAVEWESNGQPENNYKTTPPMLDSDGSFFLYSKLTVDKSRWQQGNVFSCSVMHEALHNHYTQKSLSLSPGK
# light: EIVLTQSPGTLSLSPGERATLSCTATSSVSSSYLNWYQQKPGQAPRLLIYSTSNLASGIPDRFSGSGSGTDFTLTISRLEPEDFAVYYCHQYHRSTPTFGGGTKVEIKRTVAAPSVFIFPPSDEQLKSGTASVVCLLNNFYPREAKVQWKVDNALQSGNSQESVTEQDSKDSTYSLSSTLTLSKADYEKHKVYACEVTHQGLSSPVTKSFNRGEC
# modifications: Humanized and/or affinity matured antibody sequence
# Tested on: ALS
# Test: Serum ALS levels in cynomolgus monkeys after a single antibody dose
# Type: in vivo, cynomolgus monkey
# Conditions: for serum ALS levels decreased to about: by 96 hours; for serum ALS decrease below control: by 72 hours
# Method: To determine if GHR antagonist monoclonal antibodies can affect IGF-1, IGFBP-3, and ALS levels in vivo by inhibiting the function of GHR, the effect of humanized anti-human GHR antibody SS1 was tested in cynomolgus monkeys. A dose-response study was conducted to test for changes in IGF-1, IGFBP-3, and ALS levels following a single dose of SS1. Eight naïve female cynomolgus monkeys were injected intravenously with a single dose of SS1 or negative control human IgG2, in 1×PBS 0.01% Tween™ 20. Two monkeys were dosed with 30 mg/kg SS1, two were dosed with 10 mg/kg SS1, two were dosed with 3 mg/kg SS1, and two were dosed with 30 mg/kg negative control human IgG2Δa on Day 1. […] Serum was also taken from the 30 mg/kg SS1 and negative control treated animals at 864 h post-dose.
# Serum samples were analyzed for changes in ALS levels compared to baseline using a BioVendor™ Human ALS ELISA kit (cat. #RMEE35R).
# Six naïve female cynomolgus monkeys were injected either intravenously or subcutaneously with a single dose of […] or negative control human IgG2Δa in 1×PBS 0.01% Tween™ 20. Two monkeys were dosed with 3 mg/kg SS1 intravenously, two were dosed with 3 mg/kg SS1 subcutaneously, and two were dosed with 3 mg/kg negative control human IgG2Δa subcutaneously on Day 1. Serum samples were taken from all animals at the following timepoints: pre-dose, 24 h, 72 h, 120 h, 168 h, 216 h, 264 h, 312 h, 360 h, 408 h, 456 h and 504 h.
molecule,measurement,setting,value
B1,serum ALS levels (% change from baseline),"Table 12, cynomolgus monkeys, SS1 3 mg/kg IV single dose, 312 h post-injection",−22.0 +/− 8.2%
same,serum ALS levels (% change from baseline),"Table 12, cynomolgus monkeys, SS1 3 mg/kg IV single dose, 336 h post-injection",−23.7 +/− 6.4%
same,serum ALS levels (% change from baseline),"Table 12, cynomolgus monkeys, SS1 10 mg/kg IV single dose, 24 h post-injection",27.3 +/− 32.1%
same,serum ALS levels (% change from baseline),"Table 12, cynomolgus monkeys, SS1 10 mg/kg IV single dose, 48 h post-injection",−9.4 +/− 23.4%
same,serum ALS levels (% change from baseline),"Table 12, cynomolgus monkeys, SS1 10 mg/kg IV single dose, 72 h post-injection",−8.0 +/− 35.2%
same,serum ALS levels (% change from baseline),"Table 12, cynomolgus monkeys, SS1 10 mg/kg IV single dose, 96 h post-injection",−24.1 +/− 23.6%
same,serum ALS levels (% change from baseline),"Table 12, cynomolgus monkeys, SS1 10 mg/kg IV single dose, 120 h post-injection",−17.5 +/− 30.4%
same,serum ALS levels (% change from baseline),"Table 12, cynomolgus monkeys, SS1 10 mg/kg IV single dose, 144 h post-injection",−46.5 +/− 1.9%
same,serum ALS levels (% change from baseline),"Table 12, cynomolgus monkeys, SS1 10 mg/kg IV single dose, 192 h post-injection",−39.4 +/− 3.3%
same,serum ALS levels (% change from baseline),"Table 12, cynomolgus monkeys, SS1 10 mg/kg IV single dose, 312 h post-injection",−38.7 +/− 4.1%
same,serum ALS levels (% change from baseline),"Table 12, cynomolgus monkeys, SS1 10 mg/kg IV single dose, 336 h post-injection",−40.4 +/− 0.4%
same,serum ALS levels (% change from baseline),"Table 12, cynomolgus monkeys, SS1 30 mg/kg IV single dose, 24 h post-injection",3.9 +/− 4.2%
same,serum ALS levels (% change from baseline),"Table 12, cynomolgus monkeys, SS1 30 mg/kg IV single dose, 48 h post-injection",−35.1 +/− 1.9%
same,serum ALS levels (% change from baseline),"Table 12, cynomolgus monkeys, SS1 30 mg/kg IV single dose, 72 h post-injection",−34.9 +/− 10.5%
same,serum ALS levels (% change from baseline),"Table 12, cynomolgus monkeys, SS1 30 mg/kg IV single dose, 96 h post-injection",−48.8 +/− 8.0%
same,serum ALS levels (% change from baseline),"Table 12, cynomolgus monkeys, SS1 30 mg/kg IV single dose, 120 h post-injection",−41.2 +/− 13.9%
same,serum ALS levels (% change from baseline),"Table 12, cynomolgus monkeys, SS1 30 mg/kg IV single dose, 144 h post-injection",−50.0 +/− 4.4%
same,serum ALS levels (% change from baseline),"Table 12, cynomolgus monkeys, SS1 30 mg/kg IV single dose, 192 h post-injection",−50.2 +/− 2.0%
same,serum ALS levels (% change from baseline),"Table 12, cynomolgus monkeys, SS1 30 mg/kg IV single dose, 312 h post-injection",−47.1 +/− 2.7%
same,serum ALS levels (% change from baseline),"Table 12, cynomolgus monkeys, SS1 30 mg/kg IV single dose, 336 h post-injection",−50.1 +/− 4.4%
same,serum ALS levels (% change from baseline),"Table 14, cynomolgus monkeys, SS1 3 mg/kg IV single dose, 24 hour post-injection",−4.5 +/− 4.6%
same,serum ALS levels (% change from baseline),"Table 14, cynomolgus monkeys, SS1 3 mg/kg IV single dose, 72 hour post-injection",−31.1 +/− 10.1%
same,serum ALS levels (% change from baseline),"Table 14, cynomolgus monkeys, SS1 3 mg/kg IV single dose, 120 hour post-injection",−37.5 +/− 9.4%
same,serum ALS levels (% change from baseline),"Table 14, cynomolgus monkeys, SS1 3 mg/kg IV single dose, 168 hour post-injection",−32.9 +/− 4.0%
same,serum ALS levels (% change from baseline),"Table 14, cynomolgus monkeys, SS1 3 mg/kg IV single dose, 264 hour post-injection",−9.3 +/− 2.5%
same,serum ALS levels (% change from baseline),"Table 14, cynomolgus monkeys, SS1 3 mg/kg IV single dose, 312 hour post-injection",−4.9 +/− 3.0%
same,serum ALS levels (% change from baseline),"Table 14, cynomolgus monkeys, SS1 3 mg/kg IV single dose, 360 hour post-injection",−9.7 +/− 9.6%
same,serum ALS levels (% change from baseline),"Table 14, cynomolgus monkeys, SS1 3 mg/kg SQ single dose, 24 hour post-injection",−15.9 +/− 0.2%
same,serum ALS levels (% change from baseline),"Table 14, cynomolgus monkeys, SS1 3 mg/kg SQ single dose, 72 hour post-injection",−42.7 +/− 0.5%
same,serum ALS levels (% change from baseline),"Table 14, cynomolgus monkeys, SS1 3 mg/kg SQ single dose, 120 hour post-injection",−41.1 +/− 7.1%
same,serum ALS levels (% change from baseline),"Table 14, cynomolgus monkeys, SS1 3 mg/kg SQ single dose, 168 hour post-injection",−33.7 +/− 6.5%
same,serum ALS levels (% change from baseline),"Table 14, cynomolgus monkeys, SS1 3 mg/kg SQ single dose, 264 hour post-injection",−16.5 +/− 13.2%
same,serum ALS levels (% change from baseline),"Table 14, cynomolgus monkeys, SS1 3 mg/kg SQ single dose, 312 hour post-injection",−5.0 +/− 13.6%
same,serum ALS levels (% change from baseline),"Table 14, cynomolgus monkeys, SS1 3 mg/kg SQ single dose, 360 hour post-injection",−10.0 +/− 10.2%
same,serum ALS levels decreased to about,"cynomolgus monkeys, SS1 3 mg/kg IV single dose",about 51%
same,serum ALS levels decreased to about,"cynomolgus monkeys, SS1 10 mg/kg IV single dose",~24%
same,serum ALS levels decreased to about,"cynomolgus monkeys, SS1 30 mg/kg IV single dose",~49%
same,time by which serum ALS levels returned to baseline levels,"cynomolgus monkeys, single dose 3 mg/kg SS1 SQ or IV",≤ 312 h
same,serum ALS decrease below control,"cynomolgus monkeys, single dose 3 mg/kg SS1 intravenous (IV)",about 31%
same,serum ALS decrease below control,"cynomolgus monkeys, single dose 3 mg/kg SS1 subcutaneous (SQ)",about 43%
same,effect on serum ALS levels in cynomolgus monkey,"single IV dose 3, 10 or 30 mg/kg",reduces serum ALS levels
